What was measured:
[1] = molecular target: TROP-2 (EGP-1), human, on tumor cell lines (human) (UniProt P09758); experiment: cell binding on TROP-2-positive PC-3 human prostate carcinoma cells, three separate occasions
[2] = molecular target: Human neonatal receptor (FcRn) (human) (UniProt P55899); experiment: SPR (BIACore), low density FcRn biosensor chip, three runs of five dilutions
[3] = molecular target: CD74 (invariant chain, Ii), human, on tumor cell lines (human) (UniProt P04233); experiment: flow cytometry, surface and cytoplasmic (permeabilized), Hep-G2 cells
Sequence of CD74 (invariant chain, Ii), human, on tumor cell lines (human) (P04233 whole entry, change not shown): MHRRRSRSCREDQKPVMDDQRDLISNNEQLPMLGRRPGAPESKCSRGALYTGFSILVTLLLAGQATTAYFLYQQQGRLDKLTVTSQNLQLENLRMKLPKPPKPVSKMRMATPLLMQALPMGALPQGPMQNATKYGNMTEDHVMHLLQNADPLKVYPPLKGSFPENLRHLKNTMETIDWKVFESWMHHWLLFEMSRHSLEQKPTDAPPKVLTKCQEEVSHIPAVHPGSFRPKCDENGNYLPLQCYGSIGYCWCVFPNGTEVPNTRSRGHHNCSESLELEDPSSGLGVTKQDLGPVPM

[4] = molecular target: CD74 (invariant chain, Ii), human, on tumor cell lines (human) (UniProt P04233); experiment: flow cytometry, surface and cytoplasmic (permeabilized), Raji cells
[5] = molecular target: CD74 (invariant chain, Ii), human, on tumor cell lines (human) (UniProt P04233); experiment: flow cytometry, surface only, HuH-7 cells
[6] = molecular target: CD74 (invariant chain, Ii), human, on tumor cell lines (human) (UniProt P04233); experiment: flow cytometry, surface and cytoplasmic (permeabilized), A-375 cells
[7] = molecular target: CD74 (invariant chain, Ii), human, on tumor cell lines (human) (UniProt P04233); experiment: flow cytometry, surface and cytoplasmic (permeabilized), Hs746T cells
[8] = molecular target: CD74 (invariant chain, Ii), human, on tumor cell lines (human) (UniProt P04233); experiment: flow cytometry, surface only, Raji cells
[9] = molecular target: CD74 (invariant chain, Ii), human, on tumor cell lines (human) (UniProt P04233); experiment: flow cytometry, surface and cytoplasmic (permeabilized), HuH-7 cells
[10] = molecular target: CD74 (invariant chain, Ii), human, on tumor cell lines (human) (UniProt P04233); experiment: flow cytometry, surface and cytoplasmic (permeabilized), NCI-N87 cells
[11] = molecular target: CD74 (invariant chain, Ii), human, on tumor cell lines (human) (UniProt P04233); experiment: flow cytometry, surface and cytoplasmic (permeabilized), Capan-1 cells
[12] = molecular target: CD74 (invariant chain, Ii), human, on tumor cell lines (human) (UniProt P04233); experiment: cell binding to antigen-positive cells (cell line not given)
[13] = molecular target: CD74 (invariant chain, Ii), human, on tumor cell lines (human) (UniProt P04233); experiment: flow cytometry, surface only, A-375 cells
[14] = molecular target: CD74 (invariant chain, Ii), human, on tumor cell lines (human) (UniProt P04233); experiment: flow cytometry, surface only, Hep-G2 cells
[15] = molecular target: CD74 (invariant chain, Ii), human, on tumor cell lines (human) (UniProt P04233); experiment: flow cytometry, surface only, NCI-N87 cells
[16] = molecular target: CD74 (invariant chain, Ii), human, on tumor cell lines (human) (UniProt P04233); experiment: flow cytometry, surface only, Hs746T cells
[17] = molecular target: CD74 (invariant chain, Ii), human, on tumor cell lines (human) (UniProt P04233); experiment: flow cytometry, surface only, Capan-1 cells

Sequence of Human neonatal receptor (FcRn) (human) (P55899 24-297 limits assumed): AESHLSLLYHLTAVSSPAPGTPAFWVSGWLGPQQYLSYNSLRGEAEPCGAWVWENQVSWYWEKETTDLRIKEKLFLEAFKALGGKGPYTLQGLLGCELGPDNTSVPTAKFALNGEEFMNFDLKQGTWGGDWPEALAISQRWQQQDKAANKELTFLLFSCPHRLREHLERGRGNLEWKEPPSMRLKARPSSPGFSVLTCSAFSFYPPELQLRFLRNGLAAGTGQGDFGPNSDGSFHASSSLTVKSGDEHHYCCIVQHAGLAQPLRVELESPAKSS
Sequence of TROP-2 (EGP-1), human, on tumor cell lines (human) (P09758 27-323): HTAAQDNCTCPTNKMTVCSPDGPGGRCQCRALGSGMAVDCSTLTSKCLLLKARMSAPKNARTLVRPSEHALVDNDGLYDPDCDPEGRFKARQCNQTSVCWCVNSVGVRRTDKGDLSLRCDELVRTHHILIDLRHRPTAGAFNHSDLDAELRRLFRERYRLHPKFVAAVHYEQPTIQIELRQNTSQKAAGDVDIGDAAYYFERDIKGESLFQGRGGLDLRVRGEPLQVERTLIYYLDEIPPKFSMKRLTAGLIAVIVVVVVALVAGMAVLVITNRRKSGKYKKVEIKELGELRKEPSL

IMMU-132 (hRS7-CL2A-SN-38 antibody-drug conjugate)
Kd [1]: 0.658 nM
Kd [2]: 92.4 nM

Milatuzumab (hLL1, humanized anti-CD74 IgG1 monoclonal antibody, unconjugated)
MFI [3]: 156 MFI
MFI Ratio hLL1:bkgd [3]: 31.2
MFI [4]: 143 MFI
MFI Ratio hLL1:bkgd [4]: 28.6
MFI [5]: 8 MFI
MFI Ratio hLL1:bkgd [5]: 1.6
MFI [6]: 185 MFI
MFI Ratio hLL1:bkgd [6]: 30.8
MFI [7]: 144 MFI
MFI Ratio hLL1:bkgd [7]: 28.8
MFI [8]: 59 MFI
MFI Ratio hLL1:bkgd [8]: 19.6
MFI [9]: 114 MFI
MFI Ratio hLL1:bkgd [9]: 28.5
MFI [10]: 220 MFI
MFI Ratio hLL1:bkgd [10]: 36.7
MFI [11]: 248 MFI
MFI Ratio hLL1:bkgd [11]: 49.6
Kd [12]: 0.77 nM
MFI [13]: 16 MFI
MFI Ratio hLL1:bkgd [13]: 5.3
MFI [14]: 9 MFI
MFI Ratio hLL1:bkgd [14]: 1.5
MFI [15]: 5 MFI
MFI Ratio hLL1:bkgd [15]: 1.3
MFI [16]: 17 MFI
MFI Ratio hLL1:bkgd [16]: 2.1
MFI [17]: 22 MFI
MFI Ratio hLL1:bkgd [17]: 1.8

milatuzumab-CL2A-SN-38 conjugate (antibody)
Kd [12]: 0.59 nM

milatuzumab-CL2E-SN-38 conjugate (antibody)
Kd [12]: 0.8 nM
